These results are taken from PMC7858594, “Specific inhibition of FGF5-induced cell proliferation by RNA aptamers”.

For one data set, the target named is T1, FGF5 (human, UniProt P12034 21-268).
T1 sequence: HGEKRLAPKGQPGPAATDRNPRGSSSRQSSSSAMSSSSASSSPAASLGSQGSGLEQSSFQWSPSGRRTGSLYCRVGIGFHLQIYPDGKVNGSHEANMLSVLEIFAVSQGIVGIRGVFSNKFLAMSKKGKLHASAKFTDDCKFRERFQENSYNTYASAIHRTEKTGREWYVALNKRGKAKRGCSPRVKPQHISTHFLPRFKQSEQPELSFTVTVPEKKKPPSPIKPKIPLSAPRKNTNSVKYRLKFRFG
Briefly: SPR; 4 eq low-MW heparin; SPR (BIAcore X): 20 mM Tris-HCl pH 7.4, 200 mM NaCl, 5 mM MgCl2, 5 mM CaCl2, 0.05% Tween20, 4 eq low-MW heparin; temperature not stated. To be noted: protein: commercial; label: none; multi-branched loop (predicted).

For data set [1], the target named is FGFR1alpha (IIIc)-Fc chimera (human, UniProt P11362 22-376). The experiment in a line: SPR; 100 nM protein, 4 eq low-MW heparin; SPR (BIAcore X): 20 mM Tris-HCl pH 7.4, 200 mM NaCl, 5 mM MgCl2, 5 mM CaCl2, 0.05% Tween20, 4 eq low-MW heparin; temperature not stated. Conditions: protein: commercial; tags: Fc; chain copies: 2; label: none; multi-branched loop (predicted).
FGFR1alpha (IIIc)-Fc chimera, sequence (P11362 22-376, change not shown): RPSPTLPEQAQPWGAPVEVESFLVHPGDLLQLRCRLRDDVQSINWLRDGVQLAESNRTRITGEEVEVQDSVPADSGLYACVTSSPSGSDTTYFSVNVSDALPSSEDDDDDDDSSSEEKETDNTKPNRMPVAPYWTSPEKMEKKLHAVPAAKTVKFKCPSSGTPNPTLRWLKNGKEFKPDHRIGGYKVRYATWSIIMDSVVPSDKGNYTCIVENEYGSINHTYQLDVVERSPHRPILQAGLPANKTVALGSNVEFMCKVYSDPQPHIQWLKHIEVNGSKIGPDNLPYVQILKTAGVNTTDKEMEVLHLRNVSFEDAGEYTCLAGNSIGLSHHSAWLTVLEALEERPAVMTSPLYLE

The target of another data set is FGF2 (human, UniProt P09038 143-288). The description is as above. Conditions: protein: commercial; label: none; multi-branched loop (predicted).
FGF2, sequence (P09038 143-288): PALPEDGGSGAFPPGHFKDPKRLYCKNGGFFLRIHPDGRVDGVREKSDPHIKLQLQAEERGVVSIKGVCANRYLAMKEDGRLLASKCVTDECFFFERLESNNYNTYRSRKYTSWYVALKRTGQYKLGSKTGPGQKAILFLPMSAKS
Another data set concerns the target T2, FGF6 (human, UniProt P10767 38-208).
T2 sequence: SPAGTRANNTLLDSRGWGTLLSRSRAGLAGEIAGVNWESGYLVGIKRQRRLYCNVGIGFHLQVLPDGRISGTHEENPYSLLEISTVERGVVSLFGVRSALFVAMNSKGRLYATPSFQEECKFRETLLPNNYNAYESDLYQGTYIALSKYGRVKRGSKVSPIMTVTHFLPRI
The data set is described as above. Conditions: protein: commercial; label: none; multi-branched loop (predicted).

The next data set has as its target T3, FGF4 (human, UniProt P08620 31-206).
T3 sequence: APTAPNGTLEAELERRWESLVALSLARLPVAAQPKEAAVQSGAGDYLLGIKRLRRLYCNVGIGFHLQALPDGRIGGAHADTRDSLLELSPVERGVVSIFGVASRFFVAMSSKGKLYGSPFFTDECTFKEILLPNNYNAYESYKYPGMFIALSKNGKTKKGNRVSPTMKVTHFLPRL
Described as above. To be noted: protein: commercial; label: none; multi-branched loop (predicted).

The next data set concerns the target FGF1 (human, UniProt P05230 16-155). The description is as above. Conditions: protein: commercial; label: none; multi-branched loop (predicted).

FGF1, sequence (P05230 16-155): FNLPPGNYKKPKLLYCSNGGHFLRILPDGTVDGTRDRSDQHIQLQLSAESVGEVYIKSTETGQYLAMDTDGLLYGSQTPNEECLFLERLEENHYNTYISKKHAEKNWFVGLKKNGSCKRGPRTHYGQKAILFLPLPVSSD

B1: F5f3_56 (structured_RNA)
RNA: GGGCGACCUAGCGUGAAUCCAACACGCUUGACAUACAAACUGCAUCCAGAUCGCCC
modifications: 2'-fluoro pyrimidines (all C and U)
The Kd is the equilibrium constant for the complex coming apart. Consider B1, for which the Kd with FGF5 is 0.92 ± 0.04 nM.

B2: F5f1_56 (structured_RNA)
RNA: GGGCGACCUCUCCGUACUGACCUACAGAGCGACAUACUAGUGUAUCCAGAUCGCCC
modifications: 2'-fluoro pyrimidines (all C and U)
On to B2, for which, in the data set with FGF5, the Kd was 0.118 ± 0.003 nM.

B3: F5f1 (structured_RNA)
RNA: GGGCUAGCUGAUCGUACCUCUCCGUACUGACCUACAGAGCGACAUACUAGUGUAUCCAGAUACUAACAGCUAACACCC
modifications: 2'-fluoro pyrimidines (all C and U)
For B3, the binding result (in data set [1]; with FGF2; in the data set with FGF6; with FGF4; in the data set with FGF1) was “no binding” each time. Further, the equilibrium dissociation constant (Kd) with FGF5 was 0.7 ± 0.2 nM.

B4: F5f3 (structured_RNA)
RNA: GGGCUAGCUGAUCGUACCUAGCGUGAAUCCAACACGCUUGACAUGCAAACUGCAUCCAGAUACUAACAGCUAACACCC
modifications: 2'-fluoro pyrimidines (all C and U)
On to B4, for which the Kd with FGF5 was 0.57 ± 0.02 nM.
